In publication PMC5263062:

Experiments:
Test in all cases: purified protein
purified protein [1] = substrate: CC(C)C(=O)O; conditions: 10 mM ATP, 4 mM MnSO4, pH 7.5, 37 °C
purified protein [2] = substrate: CC(C)CC(=O)O; conditions: 10 mM ATP, 4 mM MnSO4, pH 7.5, 37 °C
purified protein [3] = substrate: CCCC(=O)O; conditions: 10 mM ATP, 4 mM MnSO4, pH 7.5, 37 °C
purified protein [4] = substrate: CCCCC(=O)O; conditions: 10 mM ATP, 4 mM MnSO4, pH 7.5, 37 °C
purified protein [5] = substrate: Nc1ncnc2c1ncn2[C@@H]1O[C@H](COP(=O)(O)OP(=O)(O)OP(=O)(O)O)[C@@H](O)[C@H]1O; conditions: 200 mM butyrate, 4 mM MnSO4, pH 7.5, 37 °C, no ADP

B1: LmBuk (Buk, butyrate kinase) (Listeria monocytogenes EGD-e) (protein)
chain: MSFDVLTINPGSTSTKLAVYQGDKVLFEETVRHTMQELADFNNVQEQFDFRWQVLRRVMDAHGYDVKKLQAVVGRGGLLRPVAGGTYMVTEKMIDDLKENKYGEHASNLGAMLAKKLADELTIPSFIVDPVVVDEMQEIARISGNAFVTRKSIFHALNHKAAGRKIAKELGKDYEKMNFVIAHLGGGISVAAHRQGKAVDVNNALDGDGPFSPERSGSLPMNDFLEACFSGKWTKRELHELIVGRGGMISYLGTNSMLEVEAKVQAGEEKAIEAFDAMAYQVSKEIGACSVVLQGKVDAIILTGGLARSELFTSKIIEQTNWITSVIIEPGEDELEALNSGVQRVLAGLEKEKEY
Km (purified protein [1]): 7.6 ± 1.3 mM | kcat (purified protein [1]): 0.395 ± 0.00667 s⁻¹ | kcat/Km (purified protein [1]): 51.7 M⁻¹ s⁻¹ | Km (purified protein [2]): 57.1 ± 9.6 mM | kcat (purified protein [2]): 0.417 s⁻¹ | kcat/Km (purified protein [2]): 7.33 M⁻¹ s⁻¹ | Km (purified protein [3]): 50.5 ± 5.8 mM | kcat (purified protein [3]): 0.8367 ± 0.00667 s⁻¹ | kcat/Km (purified protein [3]): 16.5 M⁻¹ s⁻¹ | Km (purified protein [4]): 13.1 ± 3.3 mM | kcat (purified protein [4]): 1.2 ± 0.0367 s⁻¹ | kcat/Km (purified protein [4]): 91.7 M⁻¹ s⁻¹ | K0.5 (purified protein [5]): 3.18 mM
